For 34 sequences, protein stability index results are on record in the supplement of paper PMC9732359.

± gives the uncertainty stated by the source.

The series is described as follows: protein stability index of a GFP-peptide fusion (yeast GPS) (PSI 1-4); higher = more stable; sorted into four equal gates, so the index is relative within each strain. In short, it runs like this:
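Plasmids isolated from each sorting gate were PCR-amplified and Illumina-sequenced, and barcodes assigned the reads to strains. The gates, four of equal size, were set by GFP/Cherry fluorescence ratio on mid-log cultures in leucine-free medium. These cultures were yeast carrying a pooled library of tiled 17-residue yeast protein peptides fused downstream of GFP on a plasmid that also expresses Cherry. The protein stability index is the sum of every gate's read frequency times its gate number.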

Consider RAQLENEIEGKNEETPQ [RPC25], for which the protein stability index is 3.23 ± 0.14 (pdr5∆), 2.47 ± 0.2 (san1∆) and 3.38 ± 0.078 (ubr1∆).

Turning to PPSKHSTLTLSDSEDSD [ESC2], the protein stability index stood at 3.01 ± 0.15 (doa10∆), 2.82 ± 0.14 (pdr5∆), 2.59 ± 0.071 (san1∆) and 2.64 ± 0.19 (ubr1∆).

On to KVVKAIRIYFTEKDDNK [NUT1], for which the protein stability index turned out to be 2.31 ± 0.13 (doa10∆), 2.67 ± 0.07 (pdr5∆), 2.55 ± 0.12 (san1∆) and 2.97 ± 0.056 (ubr1∆).

LKMQQQQQQQQQQQQQQ [GAL11]: the protein stability index reads like this: (doa10∆) 2.69 ± 0.084; (pdr5∆) 2.89 ± 0.073; (san1∆) 2.62 ± 0.073; (ubr1∆) 2.64 ± 0.067.

Turning to YNLRSLNLINAKLWFYI [RPN3], the protein stability index is, setting by setting: (doa10∆) 1.32 ± 0.046; (pdr5∆) 1.24 ± 0.051; (san1∆) 1.38 ± 0.083; (ubr1∆) 1.48 ± 0.054.

Take NSSTSPAPSIPSTGFKF [YLR335W/NUP2]: the protein stability index reads like this: (doa10∆) 2.38 ± 0.04; (pdr5∆) 2.5 ± 0.036; (san1∆) 2.48 ± 0.043; (ubr1∆) 2.21 ± 0.028.

With TLGNLIRAELLNDRKVL [RPB11], the protein stability index (doa10∆) was 3.06 ± 0.17, the protein stability index (pdr5∆) came out at 2.74 ± 0.25, the protein stability index (san1∆) came out at 3.08 ± 0.15 and the protein stability index (ubr1∆) amounted to 2.87 ± 0.23.

With SALELVGQLNKVVDQLF [RPN6], the protein stability index is 2.84 ± 0.045 (doa10∆), 2.98 ± 0.065 (pdr5∆), 2.82 ± 0.059 (san1∆) and 2.68 ± 0.042 (ubr1∆).

Regarding ESKMRQQEAKYRNNEPA [YDL088C/ASM4], the protein stability index (doa10∆) was determined as 3.13 ± 0.074, the protein stability index (pdr5∆) turned out to be 3.12 ± 0.063, the protein stability index (san1∆) worked out at 2.84 ± 0.075 and the protein stability index (ubr1∆) stood at 2.88 ± 0.059.

Consider IKVENLNDTTEKSKALE [SMC2], for which the protein stability index was 3.07 ± 0.082 (doa10∆), 3.3 ± 0.092 (pdr5∆), 3.35 ± 0.052 (san1∆) and 3.25 ± 0.059 (ubr1∆).

Turning to ATHLPKDNVEHLVMRAI [RPN9], the protein stability index is, setting by setting: (doa10∆) 2.88 ± 0.089; (pdr5∆) 3.09 ± 0.07; (san1∆) 2.77 ± 0.067; (ubr1∆) 2.9 ± 0.06.

Regarding TGEFDFEAAVKMSDGFN [RPT4], the protein stability index runs as follows: (doa10∆) 2.91 ± 0.15; (pdr5∆) 3.33 ± 0.14; (san1∆) 2.57 ± 0.18; (ubr1∆) 3.31 ± 0.16.

Take LTGSPNNPLVQKKNFLF [ARP7]: the protein stability index is, setting by setting: (doa10∆) 2.9 ± 0.092; (pdr5∆) 2.89 ± 0.1; (san1∆) 2.27 ± 0.16; (ubr1∆) 3.18 ± 0.066.

For the sequence AAQDVWNRADNHFKDTY [FAS1], the protein stability index stood at 3.05 ± 0.18 (doa10∆), 3.14 ± 0.1 (pdr5∆), 3.19 ± 0.11 (san1∆) and 3.53 ± 0.13 (ubr1∆).

KQKSWVPSYIHVEKERA [YIL149C/MLP2]: the protein stability index amounted to 1.79 ± 0.058 (doa10∆), 2.25 ± 0.048 (pdr5∆), 2.12 ± 0.082 (san1∆) and 2 ± 0.046 (ubr1∆).

In turn, CVYVPNFNASLQLTTNT [SNM1] came in with a protein stability index (doa10∆) of 2.06 ± 0.038, a protein stability index (pdr5∆) of 2.71 ± 0.047, a protein stability index (san1∆) of 2.52 ± 0.047 and a protein stability index (ubr1∆) of 2.02 ± 0.065.

In the case of EHGLQITHTENYNDLIV [BRN1], the protein stability index reads like this: (doa10∆) 3.5 ± 0.27; (pdr5∆) 2.81 ± 0.18; (ubr1∆) 2.77 ± 0.089.

Take MNTTLGSIGSRKYSFNY [YAR002W/NUP60]: the protein stability index amounted to 1.75 ± 0.06 (doa10∆), 2.29 ± 0.066 (pdr5∆), 1.87 ± 0.095 (san1∆) and 1.41 ± 0.041 (ubr1∆).

GMPHKFYQGKTGVVYNV [RPL21A] showed a protein stability index (doa10∆) of 2.84 ± 0.088, a protein stability index (pdr5∆) of 2.86 ± 0.077, a protein stability index (san1∆) of 2.53 ± 0.078 and a protein stability index (ubr1∆) of 2.61 ± 0.067.

With RKKKFVLDVDPKYAKQK [ISW2], the protein stability index (doa10∆) was 2.91 ± 0.077, the protein stability index (pdr5∆) amounted to 2.45 ± 0.066, the protein stability index (san1∆) came out at 2.25 ± 0.12 and the protein stability index (ubr1∆) was determined as 2.66 ± 0.076.

The sequence SQSKMMSSQISSLIPHC [MTR3] registered a protein stability index (doa10∆) of 2.35 ± 0.057, a protein stability index (pdr5∆) of 2.09 ± 0.039, a protein stability index (san1∆) of 2.21 ± 0.048 and a protein stability index (ubr1∆) of 2.31 ± 0.042.

On to LLVLLQDVIKVLYQSNA [SWP82], for which the protein stability index (doa10∆) is 1.84 ± 0.074, the protein stability index (pdr5∆) is 2.03 ± 0.084, the protein stability index (san1∆) is 1.72 ± 0.12 and the protein stability index (ubr1∆) was 1.7 ± 0.054.

In the case of LASSFVNGFLNLGYCND [RPN1], the protein stability index was found to be 3.2 ± 0.1 (doa10∆), 3.33 ± 0.097 (pdr5∆), 3.27 ± 0.049 (san1∆) and 3.17 ± 0.082 (ubr1∆).

Sequence LNAINNAEKTGKRQVLI [RPS22A] displayed a protein stability index (pdr5∆) of 2.3 ± 0.26.

LYASDYASYFPYLLETY [RPN7]: the protein stability index reads like this: (doa10∆) 1.62 ± 0.077; (pdr5∆) 1.83 ± 0.086; (san1∆) 1.39 ± 0.09; (ubr1∆) 1.18 ± 0.044.

Sequence FGVPNSSKNETSKPVFS [YLR335W/NUP2] gave a protein stability index (doa10∆) of 2.32 ± 0.035, a protein stability index (pdr5∆) of 2.97 ± 0.13, a protein stability index (san1∆) of 2.55 ± 0.13 and a protein stability index (ubr1∆) of 3.15 ± 0.068.

Sequence VELTYSLNNSDSLISGV [BRR2] showed a protein stability index (doa10∆) of 2.73 ± 0.12, a protein stability index (pdr5∆) of 2.98 ± 0.085, a protein stability index (san1∆) of 3.14 ± 0.088 and a protein stability index (ubr1∆) of 3.12 ± 0.051.

Take QQAQSFVGKKNTIGSVH [SSN3]: the protein stability index runs as follows: (doa10∆) 3.14 ± 0.1; (pdr5∆) 3.12 ± 0.12; (san1∆) 3.1 ± 0.081; (ubr1∆) 2.98 ± 0.097.

As for ISSAKLDKFTDGGLFTL [QCR2], the protein stability index stood at 2.42 ± 0.13 (doa10∆), 3.06 ± 0.15 (pdr5∆), 3.23 ± 0.088 (san1∆) and 3.21 ± 0.14 (ubr1∆).

AFVKDMQVYLVPIERVA [RPC37]: the protein stability index reads like this: (doa10∆) 1.18 ± 0.13; (pdr5∆) 1.39 ± 0.27; (san1∆) 1.39 ± 0.19; (ubr1∆) 1.27 ± 0.21.

Take TVKFKHMDYDGNIVKEF [YMR129W/POM152]: the protein stability index amounted to 2.89 ± 0.079 (doa10∆), 2.39 ± 0.043 (pdr5∆), 2.67 ± 0.094 (san1∆) and 2.99 ± 0.05 (ubr1∆).

Regarding HEAKERIRQKEVTAGEA [SNF6], the protein stability index runs as follows: (doa10∆) 3 ± 0.18; (san1∆) 2.67 ± 0.25; (ubr1∆) 2.6 ± 0.074.

RHMALLVDVMTTQGGLT [RPO21]: the protein stability index is, setting by setting: (doa10∆) 1.92 ± 0.15; (pdr5∆) 2.38 ± 0.092; (san1∆) 2.44 ± 0.09.

In turn, YNIELPLPPRIDPSVTM [RPT1] yielded a protein stability index (doa10∆) of 2.44 ± 0.21, a protein stability index (pdr5∆) of 2.73 ± 0.088, a protein stability index (san1∆) of 2.47 ± 0.12 and a protein stability index (ubr1∆) of 1.95 ± 0.083.
